In US20050261196A1 (UNIVERSITY OF CHICAGO, published 2005):
Where no end group is shown, it is not given here. [ ]: non-standard residue; d: D form.

T1: D-PIK(int.)
T1 sequence: RKKYKYRRK

T2: D-PIK
T2 sequence: RKKYKYRRK

T3: D-PIK(reversed)
T3 sequence: KRRYKYKKR


Columns and labels:
D-PIK(int.) = system: T1, D-PIK(int.)
D-PIK = system: T2, D-PIK
D-PIK(reversed) = system: T3, D-PIK(reversed)
[1] = biological target: myosin light chain kinase (215 kDa MLCK expressed by Caco-2 cells) (UniProt Q15746 1-1914, limits assumed); assay: cell-based or functional assay
Chain of myosin light chain kinase (215 kDa MLCK expressed by Caco-2 cells) (Q15746 whole entry): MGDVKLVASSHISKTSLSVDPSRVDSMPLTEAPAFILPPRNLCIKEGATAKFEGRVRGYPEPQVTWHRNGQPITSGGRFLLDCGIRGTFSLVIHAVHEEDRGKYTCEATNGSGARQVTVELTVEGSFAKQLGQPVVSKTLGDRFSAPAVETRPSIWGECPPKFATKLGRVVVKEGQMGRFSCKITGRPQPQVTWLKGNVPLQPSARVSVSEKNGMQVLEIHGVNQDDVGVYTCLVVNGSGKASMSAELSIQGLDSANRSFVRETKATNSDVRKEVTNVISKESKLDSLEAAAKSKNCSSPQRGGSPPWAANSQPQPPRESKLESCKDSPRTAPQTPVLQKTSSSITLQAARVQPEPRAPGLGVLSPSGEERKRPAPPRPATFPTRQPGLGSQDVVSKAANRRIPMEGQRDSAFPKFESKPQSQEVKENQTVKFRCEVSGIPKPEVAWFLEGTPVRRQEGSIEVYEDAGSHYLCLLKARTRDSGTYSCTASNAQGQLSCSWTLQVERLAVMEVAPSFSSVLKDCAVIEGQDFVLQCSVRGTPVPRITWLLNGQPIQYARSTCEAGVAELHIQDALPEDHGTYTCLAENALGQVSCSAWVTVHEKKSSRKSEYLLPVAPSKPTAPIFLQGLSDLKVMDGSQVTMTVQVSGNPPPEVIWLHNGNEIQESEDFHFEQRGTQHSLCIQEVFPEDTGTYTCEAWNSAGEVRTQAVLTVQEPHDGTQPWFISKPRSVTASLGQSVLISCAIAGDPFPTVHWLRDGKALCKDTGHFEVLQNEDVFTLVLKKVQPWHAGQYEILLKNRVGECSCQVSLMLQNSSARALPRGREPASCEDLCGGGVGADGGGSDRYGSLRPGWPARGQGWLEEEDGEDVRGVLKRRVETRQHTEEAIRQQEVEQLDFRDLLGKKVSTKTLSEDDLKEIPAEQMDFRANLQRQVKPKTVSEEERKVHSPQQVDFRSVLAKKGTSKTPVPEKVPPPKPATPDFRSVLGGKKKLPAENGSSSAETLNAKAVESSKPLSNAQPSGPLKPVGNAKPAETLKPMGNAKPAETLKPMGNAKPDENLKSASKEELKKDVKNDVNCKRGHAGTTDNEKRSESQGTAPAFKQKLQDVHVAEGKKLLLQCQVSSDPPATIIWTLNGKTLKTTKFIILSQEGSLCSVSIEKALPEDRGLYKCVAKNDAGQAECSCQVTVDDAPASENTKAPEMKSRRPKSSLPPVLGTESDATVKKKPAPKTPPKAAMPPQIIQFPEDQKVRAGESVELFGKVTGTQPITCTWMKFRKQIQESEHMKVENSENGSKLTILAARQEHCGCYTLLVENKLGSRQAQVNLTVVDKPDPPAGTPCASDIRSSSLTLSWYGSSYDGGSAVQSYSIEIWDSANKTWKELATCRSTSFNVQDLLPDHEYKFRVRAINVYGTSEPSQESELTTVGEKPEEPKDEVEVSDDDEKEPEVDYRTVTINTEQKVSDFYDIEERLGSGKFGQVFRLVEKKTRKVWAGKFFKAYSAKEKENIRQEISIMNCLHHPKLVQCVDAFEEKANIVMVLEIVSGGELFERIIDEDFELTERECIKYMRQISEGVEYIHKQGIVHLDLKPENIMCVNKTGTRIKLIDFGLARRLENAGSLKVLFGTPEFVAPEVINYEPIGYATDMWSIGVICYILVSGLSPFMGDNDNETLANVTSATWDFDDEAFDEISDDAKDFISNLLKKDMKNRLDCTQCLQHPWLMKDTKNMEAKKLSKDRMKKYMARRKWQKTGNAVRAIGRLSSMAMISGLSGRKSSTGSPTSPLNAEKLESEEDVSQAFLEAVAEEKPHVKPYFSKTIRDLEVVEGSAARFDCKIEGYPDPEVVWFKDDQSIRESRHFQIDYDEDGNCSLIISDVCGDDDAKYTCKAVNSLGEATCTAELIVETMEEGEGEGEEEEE

Molecule | CaMPKII activity (phosphorylation of plate-bound pseudo-substrate peptide, anti-phosphoserine ELISA) (D-PIK(int.)) | CaMPKII activity (phosphorylation of plate-bound pseudo-substrate peptide, anti-phosphoserine ELISA) (D-PIK) | CaMPKII activity (phosphorylation of plate-bound pseudo-substrate peptide, anti-phosphoserine ELISA) (D-PIK(reversed)) | Δ TER (elevation in transepithelial resistance of Caco-2 monolayers, 500 µM peptide, one hour) [1] [%]
Calcium/calmodulin dependent protein kinase II (CaMPKII) | Neither D-PIK nor D-PIK(reversed) nor D-PIK(int) demonstrated striking inhibitory effects toward PKA or CaMPKII at concentrations up to 5 mM | Neither D-PIK nor D-PIK(reversed) nor D-PIK(int) demonstrated striking inhibitory effects toward PKA or CaMPKII at concentrations up to 5 mM | Neither D-PIK nor D-PIK(reversed) nor D-PIK(int) demonstrated striking inhibitory effects toward PKA or CaMPKII at concentrations up to 5 mM | –
RKKYKYRRK-NH2 (not fully specified; printed as Arg-Lys-Lys-Tyr-Lys-Tyr-Arg-Arg-Lys) [PIK (SEQ ID NO: 12)] | – | – | – | 45
[dR][dK][dK][dY][dK][dY][dR][dR][dK]-NH2 [D-PIK] | – | – | – | 41
[dK][dR][dR][dY][dK][dY][dK][dK][dR]-NH2 [D-PIK(reversed)] | – | – | – | 50
RKK[dY][dK][dY]RRK-NH2 [D-PIK(int.)] | – | – | – | 47
